Assay results from PMC11889585, “Characterization of the putative yeast mitochondrial triacylglycerol lipase Tgl2” (The Journal of Biological Chemistry, 2025).

Biological target: the molecule itself
Experiment: non-reducing SDS-PAGE with immunoblot; whole cell lysate, crude or isolated mitochondria of yeast (tgl2Δ, yme1Δ, other deletion strains) expressing HA-tagged Tgl2 variants; reducing agents omitted during SDS-PAGE; anti-HA immunodecoration; dimer-sized band

B1: N terminally hemagglutinin (HA) tagged Tgl2 (natural protein, S. cerevisiae, UniProt P54857 1-326, looked up)
chain: MKNDNKANDIIIDSVKVPDSYKPPKNPIVFCHGLSGFDKLILIPSVFHLTNLISNSIVHNMAENFMQDDEDKSDNKYTNLLEIEYWIGVKKFLQSKGCTVITTKVPGFGSIEERAMALDAQLQKEVKKIESKDKRHSLNLIAHSMGGLDCRYLICNIKNRNYDILSLTTISTPHRGSEMADYVVDLFENLNALRVSQKILPICFYQLTTAYMKYFNLVTPNSPKVSYFSYGCSFVPKWYNVFCTPWKIVYERSKGCPNDGLVTINSSKWGEYRGTLKDMDHLDVINWKNKLQDDWSKFFRTTTVGEKVDILNFYLKITDDLARKGF
notes: Tgl2, putative mitochondrial triacylglycerol lipase of the intermembrane space, S. cerevisiae; also called HA-Tgl2; native-like HA-Tgl2; source: S. cerevisiae (tgl2Δ, yme1Δ and other deletion strains), overexpressed from plasmid pYX142; in whole cell lysate, crude or isolated mitochondria; not shown: HA, N-terminal, kept
stoichiometry N: 2
